Laboratory results published in the supplement of paper PMC10126150.
± gives the standard deviation of the averaged measurements.

System: ATP
Experiment: switch fluorescence ratio, 500 uM ATP over buffer (Cy3 cluster intensity, sum of 5 cycles each) (fold (ratio)); higher = stronger signal-on switching upon ATP binding; sequences stand for … in TCGTCGGCAGCGTCAGATGTGTATAAGAGACAGTTTTTTTTTTTTTTTTTTTTTTTTT…TC
Conditions: aptamer strand: ATP DNA aptamer (quencher-CACCTGGGGGAGTATTGCGGAGGAAGG + anchor), 100 nM annealed; ATP concentration: 500 uM
Method in brief: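 The quencher-labelled ATP aptamer, at 100 nM, was annealed to Cy3-labelled switching-strand clusters on a modified Illumina MiSeq flow-cell. The clusters were imaged in selection buffer, then after 15 min with 500 uM ATP at 22 °C, and this buffer/ATP cycle ran five times with NaOH stripping and re-annealing between runs. Per-cluster fluorescence ratios, summed target-cycle over summed buffer-cycle Cy3 intensity, were averaged per switch-domain sequence. Clusters outside 100-1000 RFU were excluded.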
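Further: ATP exposure 15 min at 22 °C before imaging.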

| Sequence | switch fluorescence ratio |
| --- | --- |
| GCCCGGTCGG | 0.953 ± 0.017 |
| GCCCGTATGC | 1.07 ± 0.011 |
| GCCCTACAAC | 0.998 ± 0.012 |
| GCCCTGAGCA | 1.01 ± 0.026 |
| GCCCTTGTCA | 1.01 ± 0.019 |
| GCCCTTTCGT | 1.032 ± 0.0021 |
| GCCCTTTTAC | 1.19 ± 0.074 |
| GCCCTTTTTT | 1 ± 0.046 |
| GCCGAGCCGG | 0.972 ± 0.011 |
| GCCGAGCTCT | 0.996 ± 0.024 |
| GCCGATGCTG | 0.978 ± 0.042 |
| GCCGATTACG | 1.02 ± 0.033 |
| GCCGATTATA | 1 ± 0.00097 |
| GCCGCACGGA | 1.13 ± 0.045 |
| GCCGCAGCTA | 3.05 ± 0.15 |
| GCCGCTATTT | 1.43 ± 0.18 |
| GCCGGACAGT | 1 ± 0.017 |
| GCCGGATTCG | 1.02 ± 0.013 |
| GCCGGATTGA | 1.02 ± 0.041 |
| GCCGGCAATT | 1.01 ± 0.015 |
| GCCGGGACTA | 1.01 ± 0.024 |
| GCCGGGATTG | 0.976 ± 0.029 |
| GCCGGGGGTT | 1.2 ± 0.21 |

| Sequence | switch fluorescence ratio |
| --- | --- |
| GCCGGGTACG | 0.992 ± 0.029 |
| GCCGGGTTGA | 1.03 ± 0.048 |
| GCCGGTTATC | 1 ± 0.017 |
| GCCGGTTTTG | 1.01 ± 0.017 |
| GCCGTCTTGA | 1.01 ± 0.041 |
| GCCGTGTAGA | 1.05 ± 0.021 |
| GCCTACAACA | 1.02 ± 0.029 |
| GCCTACATTA | 0.997 ± 0.022 |
| GCCTCATAGG | 0.994 ± 0.019 |
| GCCTCGGGGG | 0.953 ± 0.021 |
| GCCTGAAAGG | 0.993 ± 0.022 |
| GCCTGAGCTG | 1.024 ± 0.0094 |
| GCCTGGGGGC | 0.967 ± 0.019 |
| GCCTGGTGTC | 1.27 ± 0.055 |
| GCCTGTATTG | 0.982 ± 0.027 |
| GCCTGTGGGG | 0.977 ± 0.019 |
| GCCTTAGAGT | 1.03 ± 0.051 |
| GCCTTAGCCG | 0.972 ± 0.019 |
| GCCTTAGGTG | 1.4 ± 0.12 |
| GCCTTGAAGT | 1 ± 0.013 |
| GCCTTGATAG | 0.981 ± 0.0086 |
| GCCTTGGTGC | 1.08 ± 0.018 |
| GCCTTTCAAT | 1.024 ± 0.0015 |

| Sequence | switch fluorescence ratio |
| --- | --- |
| GCCTTTGGCT | 0.996 ± 0.049 |
| GCCTTTTGCA | 1.01 ± 0.03 |
| GCCTTTTTTA | 0.996 ± 0.016 |
| GCGAAAACAG | 1 ± 0.088 |
| GCGAAAAGGA | 1.02 ± 0.011 |
| GCGAACGGAG | 0.998 ± 0.011 |
| GCGAATATCT | 1.02 ± 0.037 |
| GCGACGGGAG | 1.01 ± 0.013 |
| GCGACTAGGT | 1.03 ± 0.028 |
| GCGAGACTGT | 1.07 ± 0.04 |
| GCGAGATGGG | 0.9735 ± 0.0013 |
| GCGAGCGTCC | 1.025 ± 0.0023 |
| GCGAGGGCAA | 1.72 ± 0.052 |
| GCGAGGGGGT | 0.979 ± 0.054 |
| GCGAGTTGGG | 0.985 ± 0.022 |
| GCGATAAATT | 0.983 ± 0.045 |
| GCGATAATTT | 0.9975 ± 0.0076 |
| GCGATACGCA | 1.07 ± 0.041 |
| GCGATCAGAC | 1.15 ± 0.015 |
| GCGATGGAAT | 1.1282 ± 6e-05 |
| GCGATGGCTG | 0.957 ± 0.015 |
| GCGATTAGTT | 0.9711 ± 0.0012 |
| GCGATTGGCT | 1.06 ± 0.018 |

| Sequence | switch fluorescence ratio |
| --- | --- |
| GCGATTTAGA | 0.994 ± 0.016 |
| GCGATTTTTA | 1.09 ± 0.089 |
| GCGCAGGTAA | 1.04 ± 0.013 |
| GCGCAGTGGC | 1.23 ± 0.058 |
| GCGCCAAGGA | 1.08 ± 0.09 |
| GCGCCAGTTT | 0.992 ± 0.02 |
| GCGCCCATCT | 1.02 ± 0.017 |
| GCGCCTTGTG | 0.988 ± 0.018 |
| GCGCGAGGGG | 1.01 ± 0.02 |
| GCGCGATGGA | 1.03 ± 0.019 |
| GCGCGGGGGG | 1.02 ± 0.03 |
| GCGCGTAGGC | 1 ± 0.021 |
| GCGCGTCGCA | 1.02 ± 0.025 |
| GCGCGTGGAG | 1.04 ± 0.03 |
| GCGCTCGAGT | 1.018 ± 0.0074 |
| GCGCTCTTAT | 1.001 ± 0.003 |
| GCGCTGCATT | 1.06 ± 0.037 |
| GCGCTTAAAT | 1.03 ± 0.057 |
| GCGGACCCTC | 1.03 ± 0.05 |
| GCGGACTAGT | 0.9883 ± 0.0052 |
| GCGGAGAGAG | 0.998 ± 0.019 |
| GCGGAGGCGG | 0.976 ± 0.031 |
| GCGGAGGGGC | 1.0106 ± 3e-05 |

| Sequence | switch fluorescence ratio |
| --- | --- |
| GCGGAGGGTG | 1.028 ± 0.0092 |
| GCGGATGTAG | 1.01 ± 0.03 |
| GCGGATTAGG | 1.03 ± 0.0072 |
| GCGGCACATA | 1.09 ± 0.042 |
| GCGGCAGGGA | 0.997 ± 0.049 |
| GCGGCGCTTA | 1.02 ± 0.016 |
| GCGGCGGGTT | 1.04 ± 0.064 |
| GCGGCGGTGC | 1.02 ± 0.031 |
| GCGGCTGATG | 1.02 ± 0.012 |
| GCGGGAATTG | 0.981 ± 0.023 |
| GCGGGAGGTC | 1.03 ± 0.013 |
| GCGGGATGCA | 0.993 ± 0.033 |
| GCGGGCCTGG | 1.01 ± 0.037 |
| GCGGGCTGGA | 1.01 ± 0.044 |
| GCGGGGAAAT | 0.971 ± 0.021 |
| GCGGGGAATT | 1.02 ± 0.026 |
| GCGGGGCTAG | 0.989 ± 0.024 |
| GCGGGGGATC | 1 ± 0.03 |
| GCGGGGGCAA | 1.0292 ± 0.00013 |
| GCGGGGGGAG | 1.02 ± 0.043 |
| GCGGGGGGGT | 1.01 ± 0.038 |
| GCGGGGGGTT | 1.01 ± 0.038 |
| GCGGGGGTG | 1.01 ± 0.013 |

| Sequence | switch fluorescence ratio |
| --- | --- |
| GCGGGGGTTG | 0.978 ± 0.039 |
| GCGGGGTAGG | 1.015 ± 0.0099 |
| GCGGGGTCGG | 1.0083 ± 0.00048 |
| GCGGGGTCTG | 0.985 ± 0.04 |
| GCGGGGTTGC | 1.03 ± 0.033 |
| GCGGGTGGGG | 1.05 ± 0.029 |
| GCGGGTTAAA | 0.991 ± 0.012 |
| GCGGTAAGGG | 1.016 ± 0.004 |
| GCGGTACGCG | 0.953 ± 0.012 |
| GCGGTACGGT | 1.03 ± 0.039 |
| GCGGTAGGG | 1.02 ± 0.0055 |
| GCGGTCAAAT | 1.005 ± 0.0018 |
| GCGGTCCGTT | 0.9614 ± 0.0012 |
| GCGGTGAGGG | 0.993 ± 0.052 |
| GCGGTGGGTG | 0.994 ± 0.023 |
| GCGGTTCAGC | 0.985 ± 0.014 |
| GCGGTTCAGT | 1.0109 ± 0.00081 |
| GCGGTTCGTA | 0.9699 ± 0.0018 |
| GCGGTTTCAT | 0.9984 ± 0.0098 |
| GCGGTTTCCT | 1.02 ± 0.037 |
| GCGTAAAACG | 0.977 ± 0.04 |
| GCGTAAAATT | 0.9737 ± 0.0057 |
| GCGTAAGACC | 1.07 ± 0.06 |

| Sequence | switch fluorescence ratio |
| --- | --- |
| GCGTAAGCGG | 0.981 ± 0.017 |
| GCGTAAGGAG | 1.06 ± 0.096 |
| GCGTAGGGGG | 0.95 ± 0.046 |
| GCGTATACGC | 1.04 ± 0.041 |
| GCGTATATTA | 0.998 ± 0.036 |
| GCGTATCGCG | 0.985 ± 0.035 |
| GCGTCAGGAT | 1.0442 ± 0.00058 |
| GCGTCGAAGG | 0.981 ± 0.047 |
| GCGTGCGGGA | 1.02 ± 0.017 |
| GCGTGGGAGG | 1.018 ± 0.0053 |
| GCGTGGGATA | 1.03 ± 0.038 |
| GCGTGGGCGA | 1.03 ± 0.045 |
| GCGTGGGGCG | 0.996 ± 0.011 |
| GCGTGGTCTG | 0.971 ± 0.04 |
| GCGTGTGTTC | 1.08 ± 0.049 |
| GCGTGTTCGT | 1.031 ± 0.0084 |
| GCGTGTTGTG | 1.02 ± 0.018 |
| GCGTTAAGGA | 0.9835 ± 0.0056 |
| GCGTTACGGT | 1.02 ± 0.0057 |
